What was measured:
Settings in all cases: both partners purified
[1] = molecular target: T1, SPDL1(2–359)::Strep-tag II (human, UniProt Q96EA4 2-359); test: MST; 10 nM LIC1(388–523)::6xHis labelled with Red-Tris NTA dye; 16 two-fold dilutions of adaptor::Strep-tag II; 25°C
T1 construct: human Spindly (SPDL1), N-terminal region, residues 2-359; also called Spindly; source: E. coli BL21, purified (Ni-NTA, TEV cleavage, Strep-Tactin; dialysis or SEC); not shown: 6xHis::MBP, N-terminal, cleaved; Strep-tag II (after linker GSGSGR), C-terminal, kept
T1 sequence (looked up): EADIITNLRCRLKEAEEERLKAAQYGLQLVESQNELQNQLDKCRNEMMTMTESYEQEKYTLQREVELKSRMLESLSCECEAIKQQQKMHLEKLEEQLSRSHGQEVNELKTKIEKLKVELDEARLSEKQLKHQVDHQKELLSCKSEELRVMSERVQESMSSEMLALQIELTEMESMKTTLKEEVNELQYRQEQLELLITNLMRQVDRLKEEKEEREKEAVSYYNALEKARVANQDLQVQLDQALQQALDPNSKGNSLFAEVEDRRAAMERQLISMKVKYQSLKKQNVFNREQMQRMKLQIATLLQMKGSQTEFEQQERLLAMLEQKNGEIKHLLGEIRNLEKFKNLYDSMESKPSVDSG

[2] = molecular target: T2, BICD2(2–422)::Strep-tag II (human, UniProt Q8TD16 2-422); test: as above
T2 construct: human bicaudal D homolog 2 (BICD2), N-terminal region, residues 2-422; also called bicaudal D homolog 2; source: E. coli BL21, purified (Ni-NTA, TEV cleavage, Strep-Tactin; dialysis or SEC); not shown: 6xHis::MBP, N-terminal, cleaved; Strep-tag II (after linker GSGSGR), C-terminal, kept

[3] = molecular target: T3, HOOK3(2–239)::Strep-tag II (human, UniProt Q86VS8 2-239); test: as above
T3 construct: human Hook homolog 3 (HOOK3), residues 2-239; used for NMR, SPR and MST; also called Hook homolog 3; source: E. coli Rosetta, purified (Ni-NTA, TEV cleavage, Strep-Tactin; dialysis or SEC); not shown: 6xHis::MBP, N-terminal, cleaved; Strep-tag II (after linker GSGSGR), C-terminal, kept
T3 sequence (looked up): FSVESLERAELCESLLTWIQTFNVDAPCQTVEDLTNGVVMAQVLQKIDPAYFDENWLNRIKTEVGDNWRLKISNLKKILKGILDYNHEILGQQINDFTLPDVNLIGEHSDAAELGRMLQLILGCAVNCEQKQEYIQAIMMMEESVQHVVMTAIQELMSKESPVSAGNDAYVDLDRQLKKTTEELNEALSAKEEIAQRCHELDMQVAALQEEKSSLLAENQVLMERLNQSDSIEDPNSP

[4] = molecular target: T1, SPDL1(2–359)::Strep-tag II; test: SPR; Biacore 3000; His-tagged LIC1 immobilised on NTA chip (200–300 RU), Strep-tagged adaptor as analyte; HBS-P (10 mM HEPES, 150 mM NaCl, 0.005% surfactant P20, pH 7.4)
[5] = molecular target: T2, BICD2(2–422)::Strep-tag II; test: as above
[6] = molecular target: T3, HOOK3(2–239)::Strep-tag II; test: as above

T2 sequence (Q8TD16 2-422): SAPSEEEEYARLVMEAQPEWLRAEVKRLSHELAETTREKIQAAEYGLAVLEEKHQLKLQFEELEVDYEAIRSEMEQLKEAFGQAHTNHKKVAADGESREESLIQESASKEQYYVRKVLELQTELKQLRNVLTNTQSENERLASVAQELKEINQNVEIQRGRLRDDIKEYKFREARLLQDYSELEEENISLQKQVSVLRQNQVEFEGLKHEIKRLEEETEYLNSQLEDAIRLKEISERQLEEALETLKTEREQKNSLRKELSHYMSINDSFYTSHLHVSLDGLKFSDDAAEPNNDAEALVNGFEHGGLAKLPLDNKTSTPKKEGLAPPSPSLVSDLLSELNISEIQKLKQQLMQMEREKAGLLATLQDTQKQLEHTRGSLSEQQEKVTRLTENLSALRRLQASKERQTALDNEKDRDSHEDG

B1: LIC1(388–523)::6xHis (domain or fragment, human)
chain: WPTAAGRPVDASPRVPGGSPRTPNRSVSSNVASVSPIPAGSKKIDPNMKAGATSEGVLANFFNSLLSKKTGSPGGPGVSGGSPAGGAGGGSSGLPPSTKKSGQKPVLDVHAELDRITRKPVTVSPTTPTSPTEGEAS
notes: single N-terminal tryptophan added in the construct; 15N-labelled for the NMR titration; labelled with Red-Tris NTA dye on the His tag for MST; also called LIC1-C; LIC1-C::6xHis; source: E. coli BL21, purified (GSTrap, PreScission cleavage, second GSTrap, SEC Superdex 75); not shown: GST, N-terminal, cleaved; 6xHis (after linker GSGSG), C-terminal, kept
Kd [1]: 13.1 µM | Kd [2]: 6 µM | Kd [3]: 4 µM | Kd [4]: 5.7 µM | Kd [5]: 1.07 µM | Kd [6]: 1.9 µM

Reference: publication PMC6336354, “A transient helix in the disordered region of dynein light intermediate chain links the motor to structurally diverse adaptors for cargo transport” (PLoS Biology, 2019)
